Results taken from the supplement of paper PMC10065799, “High-throughput profiling of sequence recognition by tyrosine kinases and SH2 domains using bacterial peptide display” (eLife, 2023).

Tests used:
SHP2-C SH2 = experiment: SH2 binding enrichment of the phosphorylated peptide, bacterial display (enrichment ratio); higher = better substrate or ligand; peptides without Tyr show the background
Grb2 SH2 = Grb2 SH2 (UniProt P62993); experiment: as above
c-Src SH2 = experiment: as above
FGFR1 = FGFR1 (UniProt P11362); experiment: phosphorylation enrichment, bacterial display (enrichment ratio); higher = better substrate or ligand; peptides without Tyr show the background
Chain of FGFR1 (P11362 whole entry, looked up): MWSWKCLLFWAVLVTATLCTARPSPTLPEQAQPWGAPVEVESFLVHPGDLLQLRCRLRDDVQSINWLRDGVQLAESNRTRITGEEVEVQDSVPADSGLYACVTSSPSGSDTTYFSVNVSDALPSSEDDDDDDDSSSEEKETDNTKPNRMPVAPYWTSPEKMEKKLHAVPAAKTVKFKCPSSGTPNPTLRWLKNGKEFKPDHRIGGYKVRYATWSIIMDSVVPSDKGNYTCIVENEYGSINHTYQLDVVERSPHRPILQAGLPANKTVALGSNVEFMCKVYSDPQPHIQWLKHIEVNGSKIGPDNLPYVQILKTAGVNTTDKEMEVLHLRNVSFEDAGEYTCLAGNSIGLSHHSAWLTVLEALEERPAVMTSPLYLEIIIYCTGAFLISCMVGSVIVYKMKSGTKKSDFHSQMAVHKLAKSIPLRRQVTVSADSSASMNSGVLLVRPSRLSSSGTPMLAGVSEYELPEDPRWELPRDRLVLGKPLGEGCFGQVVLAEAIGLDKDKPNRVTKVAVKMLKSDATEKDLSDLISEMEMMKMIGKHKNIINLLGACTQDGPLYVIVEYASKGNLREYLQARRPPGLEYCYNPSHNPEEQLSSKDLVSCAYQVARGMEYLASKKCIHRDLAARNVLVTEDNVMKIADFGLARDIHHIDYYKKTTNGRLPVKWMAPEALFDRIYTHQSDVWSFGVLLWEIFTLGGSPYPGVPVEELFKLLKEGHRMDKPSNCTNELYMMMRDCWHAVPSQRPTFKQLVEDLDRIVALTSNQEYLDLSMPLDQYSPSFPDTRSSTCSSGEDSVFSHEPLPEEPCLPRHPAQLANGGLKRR

FGFR3 = FGFR3 (UniProt P22607); experiment: as above
EPHB2 = EPHB2 (UniProt P29323); experiment: as above
Chain of EPHB2 (P29323 whole entry, looked up): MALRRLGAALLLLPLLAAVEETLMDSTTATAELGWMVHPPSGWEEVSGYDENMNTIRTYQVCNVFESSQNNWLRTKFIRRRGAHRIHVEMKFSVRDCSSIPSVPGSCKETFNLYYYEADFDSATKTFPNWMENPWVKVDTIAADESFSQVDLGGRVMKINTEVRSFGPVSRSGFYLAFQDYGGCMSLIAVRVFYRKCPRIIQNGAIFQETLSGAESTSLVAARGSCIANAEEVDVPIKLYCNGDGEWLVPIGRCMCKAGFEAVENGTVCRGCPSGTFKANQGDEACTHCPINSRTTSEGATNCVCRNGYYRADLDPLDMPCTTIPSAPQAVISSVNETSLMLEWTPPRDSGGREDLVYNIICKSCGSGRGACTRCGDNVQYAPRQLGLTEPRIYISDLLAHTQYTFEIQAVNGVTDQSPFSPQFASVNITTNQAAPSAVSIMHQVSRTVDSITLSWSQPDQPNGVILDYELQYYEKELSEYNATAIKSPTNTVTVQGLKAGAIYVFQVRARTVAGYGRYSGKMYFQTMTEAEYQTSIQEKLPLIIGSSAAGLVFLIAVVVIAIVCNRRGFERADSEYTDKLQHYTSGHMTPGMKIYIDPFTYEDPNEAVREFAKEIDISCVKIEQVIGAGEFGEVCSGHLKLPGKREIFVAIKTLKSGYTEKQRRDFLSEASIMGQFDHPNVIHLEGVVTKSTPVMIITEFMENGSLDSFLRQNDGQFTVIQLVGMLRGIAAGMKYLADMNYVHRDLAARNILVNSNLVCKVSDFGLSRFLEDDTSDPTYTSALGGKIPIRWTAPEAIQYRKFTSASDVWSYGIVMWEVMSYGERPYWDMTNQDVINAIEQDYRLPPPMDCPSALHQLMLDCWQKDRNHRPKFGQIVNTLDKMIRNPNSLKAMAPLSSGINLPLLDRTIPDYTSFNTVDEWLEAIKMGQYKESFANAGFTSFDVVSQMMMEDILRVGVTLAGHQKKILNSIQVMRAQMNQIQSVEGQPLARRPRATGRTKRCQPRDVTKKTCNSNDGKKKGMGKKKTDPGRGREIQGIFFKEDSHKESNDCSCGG

c-Src = experiment: as above
Fer (mouse) = experiment: as above
Hck = Hck (UniProt P08631); experiment: as above
c-Abl (mouse) = experiment: as above
AncSZ = experiment: as above
Fes = Fes (UniProt P07332); experiment: as above
EPHB1 = EPHB1 (UniProt P54762); experiment: as above
Chain of EPHB1 (P54762 whole entry, looked up): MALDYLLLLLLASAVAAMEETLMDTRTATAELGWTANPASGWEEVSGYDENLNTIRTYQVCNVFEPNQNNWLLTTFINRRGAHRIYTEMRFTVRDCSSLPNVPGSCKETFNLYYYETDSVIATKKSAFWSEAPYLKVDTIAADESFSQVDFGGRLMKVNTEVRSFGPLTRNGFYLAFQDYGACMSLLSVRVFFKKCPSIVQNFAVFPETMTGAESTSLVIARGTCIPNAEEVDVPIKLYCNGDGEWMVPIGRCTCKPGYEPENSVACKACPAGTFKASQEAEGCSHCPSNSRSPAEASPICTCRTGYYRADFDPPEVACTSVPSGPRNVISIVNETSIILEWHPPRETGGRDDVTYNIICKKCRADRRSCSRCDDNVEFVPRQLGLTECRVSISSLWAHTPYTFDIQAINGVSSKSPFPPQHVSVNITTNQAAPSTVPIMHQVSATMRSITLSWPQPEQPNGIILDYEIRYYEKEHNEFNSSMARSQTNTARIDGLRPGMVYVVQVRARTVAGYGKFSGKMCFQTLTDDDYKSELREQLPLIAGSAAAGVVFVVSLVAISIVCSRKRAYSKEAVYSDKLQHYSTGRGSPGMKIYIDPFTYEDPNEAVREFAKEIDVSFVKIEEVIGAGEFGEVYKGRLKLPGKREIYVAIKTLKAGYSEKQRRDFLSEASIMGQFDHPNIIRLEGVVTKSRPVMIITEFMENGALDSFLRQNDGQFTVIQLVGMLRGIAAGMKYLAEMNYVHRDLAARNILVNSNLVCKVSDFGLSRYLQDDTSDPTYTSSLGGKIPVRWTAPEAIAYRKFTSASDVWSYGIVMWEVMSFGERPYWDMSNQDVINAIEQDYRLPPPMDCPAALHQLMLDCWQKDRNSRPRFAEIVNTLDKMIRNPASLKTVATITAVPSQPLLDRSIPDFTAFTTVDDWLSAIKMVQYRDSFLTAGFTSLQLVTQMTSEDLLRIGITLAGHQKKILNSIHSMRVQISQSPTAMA

MERTK = MERTK (UniProt Q12866); experiment: as above
Chain of MERTK (Q12866 whole entry, looked up): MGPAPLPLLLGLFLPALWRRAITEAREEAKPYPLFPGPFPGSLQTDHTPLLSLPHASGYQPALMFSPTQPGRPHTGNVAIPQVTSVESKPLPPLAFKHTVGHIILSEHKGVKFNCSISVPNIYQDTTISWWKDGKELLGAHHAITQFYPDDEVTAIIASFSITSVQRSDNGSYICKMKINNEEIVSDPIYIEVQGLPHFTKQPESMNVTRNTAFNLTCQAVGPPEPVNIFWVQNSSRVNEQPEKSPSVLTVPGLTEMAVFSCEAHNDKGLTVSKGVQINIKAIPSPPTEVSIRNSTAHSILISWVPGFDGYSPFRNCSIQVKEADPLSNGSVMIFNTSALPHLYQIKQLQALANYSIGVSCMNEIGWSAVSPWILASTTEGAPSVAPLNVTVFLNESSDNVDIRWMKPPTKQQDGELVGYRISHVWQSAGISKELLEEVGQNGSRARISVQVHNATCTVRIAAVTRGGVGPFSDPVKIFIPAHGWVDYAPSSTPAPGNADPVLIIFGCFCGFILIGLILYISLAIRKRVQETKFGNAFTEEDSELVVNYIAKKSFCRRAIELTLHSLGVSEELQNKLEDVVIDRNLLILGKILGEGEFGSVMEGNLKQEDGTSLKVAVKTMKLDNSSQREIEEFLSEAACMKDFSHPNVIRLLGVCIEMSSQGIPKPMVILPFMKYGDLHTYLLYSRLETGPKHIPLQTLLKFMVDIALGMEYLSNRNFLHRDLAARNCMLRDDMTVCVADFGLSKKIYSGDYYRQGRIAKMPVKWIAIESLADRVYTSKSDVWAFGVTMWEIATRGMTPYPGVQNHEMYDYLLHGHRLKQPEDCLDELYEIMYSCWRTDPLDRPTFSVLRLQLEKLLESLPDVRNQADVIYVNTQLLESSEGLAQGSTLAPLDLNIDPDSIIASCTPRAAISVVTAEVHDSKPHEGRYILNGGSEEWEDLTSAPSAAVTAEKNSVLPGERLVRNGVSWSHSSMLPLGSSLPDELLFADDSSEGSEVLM

Fyn = Fyn (UniProt P06241); experiment: as above
Chain of Fyn (P06241 whole entry, looked up): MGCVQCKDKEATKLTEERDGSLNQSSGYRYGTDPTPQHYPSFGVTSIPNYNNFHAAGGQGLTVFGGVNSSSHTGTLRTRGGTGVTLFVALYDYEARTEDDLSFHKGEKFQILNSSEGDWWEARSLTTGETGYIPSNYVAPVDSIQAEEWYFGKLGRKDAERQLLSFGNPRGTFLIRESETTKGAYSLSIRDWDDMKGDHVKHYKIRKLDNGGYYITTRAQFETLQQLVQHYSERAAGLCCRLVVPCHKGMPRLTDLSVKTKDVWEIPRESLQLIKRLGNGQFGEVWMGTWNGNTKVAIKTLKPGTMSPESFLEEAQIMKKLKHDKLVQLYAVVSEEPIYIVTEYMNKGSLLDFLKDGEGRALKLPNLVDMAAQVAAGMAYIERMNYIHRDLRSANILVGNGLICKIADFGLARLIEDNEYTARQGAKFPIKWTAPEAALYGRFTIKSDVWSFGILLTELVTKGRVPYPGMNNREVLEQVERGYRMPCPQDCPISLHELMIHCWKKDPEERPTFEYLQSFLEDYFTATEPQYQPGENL

Jak2 = Jak2 (UniProt O60674); experiment: as above
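Wherever SH2 binding enrichment of the phosphorylated peptide, bacterial display is given: peptide library displayed on the E. coli surface as eCPX fusions, selected cells deep-sequenced, score is each peptide's frequency after selection divided by its frequency in the input.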
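Wherever phosphorylation enrichment, bacterial display is given: 11-residue human phosphosite peptides and single-mutation variants displayed on the E. coli surface, counted by deep sequencing, each peptide's frequency after selection divided by its frequency in the unselected input library; frequency after pTyr selection over input frequency; kinase dosed for 20-30% of maximal phosphorylation in three min.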

Chain of Grb2 SH2 (P62993 whole entry, looked up): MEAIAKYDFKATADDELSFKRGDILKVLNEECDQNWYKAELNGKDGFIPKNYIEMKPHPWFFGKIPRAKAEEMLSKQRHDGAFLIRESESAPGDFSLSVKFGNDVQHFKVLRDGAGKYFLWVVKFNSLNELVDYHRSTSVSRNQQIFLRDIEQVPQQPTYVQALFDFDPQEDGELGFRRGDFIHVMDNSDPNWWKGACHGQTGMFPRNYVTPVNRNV

| Sequence | SH2 binding enrichment (SHP2-C SH2) | SH2 binding enrichment (Grb2 SH2) | SH2 binding enrichment (c-Src SH2) | phosphorylation enrichment (FGFR1) | phosphorylation enrichment (FGFR3) | phosphorylation enrichment (EPHB2) | phosphorylation enrichment (c-Src) | phosphorylation enrichment (Fer (mouse)) | phosphorylation enrichment (Hck) | phosphorylation enrichment (c-Abl (mouse)) | phosphorylation enrichment (AncSZ) | phosphorylation enrichment (Fes) | phosphorylation enrichment (EPHB1) | phosphorylation enrichment (MERTK) | phosphorylation enrichment (Fyn) | phosphorylation enrichment (Jak2) |
| --- | --- | --- | --- | --- | --- | --- | --- | --- | --- | --- | --- | --- | --- | --- | --- | --- |
| DEEEEYEFMNR [ERBB3_Y1197_D1194E_YF] | 0.747 | 0.946 | 0.637 | 0.572 | 0.779 | 0.76 | 0.527 | 0.485 | 0.522 | 1.1 | 1.16 | 1.07 | 0.62 | 0.462 | 0.512 | 0.903 |
| DEEPPHRGPFC [SASH1_Y551_Y551H] | 0.895 | 1.03 | 0.744 | 0.645 | 0.651 | 0.783 | 0.475 | 0.528 | 0.542 | 0.609 | 1.01 | 1.06 | 0.619 | 0.41 | 0.489 | 0.795 |
| DENWFYMRAAS [RPS19_Y54_T55M] | 0.627 | 0.774 | 0.481 | 0.654 | 0.933 | 0.654 | 0.384 | 0.594 | 0.485 | 0.869 | 1.35 | 1.52 | 0.718 | 0.379 | 0.43 | 1.25 |
| DFDNLYFWDQD [ERBB2_Y1221_A1216D_YF] | 0.854 | 0.668 | 0.333 | 7.58 | 7.69 | 1.07 | 5.27 | 2.2 | 5.15 | 0.801 | 2.2 | 1.71 | 1.57 | 4.6 | 6.47 | 1.25 |
| DFDNLYYWDQD [ERBB2_Y1221_A1216D] | 0.462 | 0.808 | 0.453 | 9.53 | 9.13 | 3.3 | 6.09 | 3.8 | 5.31 | 0.973 | 2.68 | 1.96 | 4.08 | 7.57 | 6.81 | 1.86 |
| DGKYSYLKVGH [GRM3_Y480_G475D] | 1.45 | 1.05 | 4.12 | 0.38 | 0.427 | 0.297 | 0.352 | 0.372 | 0.455 | 0.284 | 0.442 | 0.623 | 0.303 | 0.44 | 0.372 | 0.437 |
| DGMADYSDPSF [CDC5L_Y459_YF] | 0.662 | 0.781 | 0.557 | 0.911 | 1 | 3.21 | 0.501 | 0.592 | 0.63 | 1.04 | 1.92 | 1.2 | 1.72 | 0.5 | 0.488 | 1.12 |
| DHFNQYEQQKM [CHD7_Y75_YF] | 0.682 | 0.752 | 0.501 | 0.468 | 0.582 | 0.462 | 0.414 | 0.415 | 0.47 | 0.599 | 0.834 | 0.744 | 0.457 | 0.425 | 0.382 | 0.535 |
| DKITQYVEEVR [STX2_Y49_K54R] | 0.719 | 0.905 | 0.45 | 0.477 | 0.609 | 0.551 | 0.417 | 0.486 | 0.517 | 0.605 | 0.999 | 1.08 | 0.739 | 0.411 | 0.427 | 0.872 |
| DLAAQYTTVGR [SGSH_Y240] | 1.24 | 0.824 | 3.41 | 0.462 | 0.53 | 0.415 | 0.912 | 0.382 | 0.799 | 0.542 | 0.701 | 0.664 | 0.407 | 0.494 | 0.52 | 0.724 |
| DLDATYRPMYS [JUP_Y701_M697L] | 0.832 | 0.798 | 0.502 | 0.383 | 0.512 | 0.444 | 0.569 | 0.433 | 0.6 | 0.486 | 0.699 | 0.86 | 0.399 | 0.386 | 0.46 | 0.588 |
| DLDTEYGSGFP [RNASEH2A_Y206_D205E_YF] | 0.622 | 1.06 | 0.429 | 0.622 | 0.958 | 0.642 | 0.825 | 0.799 | 0.654 | 1.27 | 1.55 | 1.34 | 0.676 | 0.469 | 0.744 | 1.39 |
| DLDTEYGSGYP [RNASEH2A_Y206_D205E] | 0.464 | 0.7 | 0.531 | 0.507 | 0.652 | 0.542 | 0.549 | 0.505 | 0.546 | 0.727 | 1.23 | 1.01 | 0.652 | 0.379 | 0.49 | 1.17 |
| DMLFQYLKQIE [RPAP3_Y569_YF] | 0.851 | 0.93 | 0.652 | 0.531 | 0.59 | 0.588 | 0.468 | 0.462 | 0.571 | 0.577 | 1.48 | 1.22 | 0.684 | 0.523 | 0.421 | 0.976 |
| DNEALYDICFR [TUBB2B_Y208] | 0.627 | 0.77 | 0.469 | 0.618 | 0.917 | 4.88 | 5.86 | 10.2 | 6.43 | 3.58 | 3.21 | 1.6 | 4.63 | 7.51 | 6.65 | 1.38 |
| DNLNNYVFQGQ [GRIN2A_Y978] | 0.617 | 0.819 | 0.438 | 0.703 | 0.789 | 1.17 | 0.598 | 0.514 | 0.392 | 0.815 | 1.21 | 1.06 | 1.77 | 0.657 | 0.593 | 1.01 |
| DPHQQYYIAMD [TBX15_Y159] | 0.737 | 0.957 | 1.75 | 6.27 | 4.36 | 0.593 | 1.55 | 0.52 | 0.669 | 0.59 | 1.05 | 0.881 | 0.735 | 2.7 | 0.625 | 0.996 |

| Sequence | SH2 binding enrichment (SHP2-C SH2) | SH2 binding enrichment (Grb2 SH2) | SH2 binding enrichment (c-Src SH2) | phosphorylation enrichment (FGFR1) | phosphorylation enrichment (FGFR3) | phosphorylation enrichment (EPHB2) | phosphorylation enrichment (c-Src) | phosphorylation enrichment (Fer (mouse)) | phosphorylation enrichment (Hck) | phosphorylation enrichment (c-Abl (mouse)) | phosphorylation enrichment (AncSZ) | phosphorylation enrichment (Fes) | phosphorylation enrichment (EPHB1) | phosphorylation enrichment (MERTK) | phosphorylation enrichment (Fyn) | phosphorylation enrichment (Jak2) |
| --- | --- | --- | --- | --- | --- | --- | --- | --- | --- | --- | --- | --- | --- | --- | --- | --- |
| DPLLTYRFPPK [LMNA_Y481] | 0.911 | 0.921 | 0.542 | 0.452 | 0.446 | 0.349 | 0.635 | 0.292 | 0.43 | 0.578 | 0.597 | 0.513 | 0.422 | 0.434 | 0.502 | 0.515 |
| DPYHVYIKNHV [KCNE3_Y95_R99H] | 0.779 | 0.804 | 0.939 | 0.447 | 0.533 | 0.459 | 2.34 | 0.45 | 0.705 | 0.685 | 0.845 | 0.826 | 0.467 | 0.399 | 0.981 | 0.798 |
| DQNVEYKGTVS [FHL1_Y117_W122S] | 0.704 | 0.867 | 0.53 | 0.525 | 0.566 | 0.616 | 0.444 | 0.468 | 0.495 | 0.624 | 0.801 | 0.828 | 0.508 | 0.452 | 0.422 | 0.618 |
| DRLASSLDKVR [KRT10_Y160_Y160S] | 0.846 | 0.974 | 0.422 | 0.35 | 0.415 | 0.364 | 0.333 | 0.412 | 0.308 | 0.468 | 0.438 | 0.663 | 0.34 | 0.331 | 0.423 | 0.473 |
| DRLASYQDKVR [KRT12_Y139_L140Q] | 0.685 | 0.786 | 0.546 | 0.394 | 0.539 | 0.461 | 0.41 | 0.299 | 0.417 | 0.516 | 0.532 | 0.68 | 0.411 | 0.437 | 0.361 | 0.577 |
| DRTGHYLCNAC [GATA1_Y223] | 0.595 | 0.792 | 0.503 | 0.349 | 0.449 | 0.676 | 0.469 | 0.408 | 0.489 | 0.575 | 0.691 | 0.769 | 0.389 | 0.499 | 0.389 | 0.885 |
| DSDTDYGSGFP [RNASEH2A_Y206_L202S_YF] | 0.697 | 0.705 | 0.494 | 0.418 | 0.605 | 0.557 | 0.494 | 0.492 | 0.566 | 0.755 | 1.1 | 1.01 | 0.545 | 0.455 | 0.429 | 0.905 |
| DSEIRYLSADS [TTF1_Y476] | 0.914 | 0.887 | 0.633 | 0.546 | 0.709 | 0.547 | 0.51 | 0.551 | 0.458 | 0.727 | 0.964 | 0.933 | 0.489 | 0.461 | 0.526 | 0.868 |
| DSSIRYLQEIH [FGG_Y135_Y140H] | 0.667 | 0.705 | 0.499 | 0.384 | 0.509 | 0.402 | 0.347 | 0.33 | 0.356 | 0.524 | 0.597 | 0.667 | 0.378 | 0.369 | 0.388 | 0.561 |
| DVFRQYASLRG [GANAB_Y379_T383R] | 31 | 0.842 | 1.57 | 0.453 | 0.41 | 0.435 | 0.399 | 0.295 | 0.404 | 0.459 | 0.482 | 0.625 | 0.329 | 0.384 | 0.393 | 0.504 |
| DVLPEYKLQAP [KCNH2_Y388] | 0.625 | 1.02 | 0.508 | 0.48 | 0.728 | 0.557 | 0.405 | 0.427 | 0.519 | 0.693 | 0.911 | 0.861 | 0.548 | 0.432 | 0.53 | 0.659 |
| EAGKVYLKAPM [CBFB_Y96] | 0.609 | 0.956 | 0.503 | 0.433 | 0.609 | 0.524 | 0.434 | 0.411 | 0.496 | 0.504 | 0.754 | 0.939 | 0.443 | 0.602 | 0.492 | 0.669 |
| EAIMTYVSSFY [ACTN4_Y260_K255E] | 0.672 | 0.712 | 0.477 | 0.459 | 0.693 | 0.631 | 0.855 | 0.445 | 0.631 | 0.708 | 1.14 | 1.12 | 0.617 | 0.457 | 0.503 | 1.06 |
| EALDFYGEVRI [PTEN_Y155_T160I] | 0.567 | 1.09 | 0.499 | 0.538 | 1.1 | 0.614 | 1.44 | 1.55 | 1.13 | 1.11 | 1.49 | 1.73 | 0.871 | 0.494 | 1.64 | 2.03 |
| EEGNPSYSSAR [MCCC2_Y520_Y520S] | 0.647 | 0.825 | 0.517 | 0.529 | 0.554 | 0.539 | 0.542 | 0.513 | 0.585 | 1.25 | 0.962 | 1 | 0.514 | 0.501 | 0.497 | 0.776 |
| EEQKKYFNAMK [SCN5A_Y1494_YF] | 0.847 | 0.901 | 0.421 | 0.421 | 0.656 | 0.474 | 0.479 | 0.341 | 0.459 | 0.616 | 0.882 | 0.866 | 0.459 | 0.428 | 0.489 | 0.672 |
